Earlier results on one substance are cited in publication PMC12805100.

pKd: −log10 of the molar value. Read-outs that look alike come from different tables or passages of the source.

Data set [1] addresses Calmodulin (Homo sapiens) (UniProt P0DP23).
For data set [2] the target is unchanged. This is another data set of the same source.

Usually pKd stands for −log10 of the Kd, conventionally taken in molar units. For TRPA1 DCTCaMBE (from UniProt O75762), the pKd in data set [1] is 6.22; in data set [2], 7.00.
